This is an account of results in US20250304927A1, “PRO-PEPTIDE VARIANTS FOR MODULATING ACTIVITY OF TRANSGLUTAMINASES” (CURIE CO. INC., priority 2022, published 2025).

Data set [1] deals with T1, mature evolved transglutaminase (SEQ ID NO: 5) (Streptomyces mobaraensis, UniProt P81453, G359A/K167H/K227R/K228R/N358M/Q126S/Q150A/Q200L).
T1 construct: hexa-His tag with two amino acid linker (C); made in house; host or cells: E. coli BL21 (DE3)
Kind of data set: casein assay, inhibition by pro-peptide variants (Method B, activated zymogen). It counts as biochemical. The conditions noted are these: relative to wild-type pro-peptide, diluted approximately 20-fold into casein assay solution. Set-up: key: The symbol, —, represents not determined, neutral, or reduced performance. From the text: Method B. The gene coding for a Pro-transglutaminase (i.e., zymogen form of transglutaminase) variant with the wild-type pro-domain (SEQ ID NO: 2) and an evolved mature domain including a C-terminal His tag (SEQ ID NO: 5), and was cloned into a pET vector operatively linked to the T7 promoter. The expression vector also contains the pMB1 origin of replication and a kanamycin resistance gene. The resulting plasmid was transformed first into E. coli DH-10B, using standard methods known in the art. […]
(§1) A secondary screen was performed to determine initial rate of transglutaminase in the presence of the pro-peptide variants using transglutaminase-catalyzed labeling of casein with dansylcadaverine (e.g., a commercially available kit such as the Transglutaminase Fluorogenic Activity Assay Kit, T036, Zedira, Germany). Transglutaminase activity was monitored by measuring the fluorescence (excitation wavelength 332 nm; emission wavelength 500 nm) using a BioTek Synergy H1 microplate reader. Transglutaminase-catalyzed covalent coupling (crosslinking) of monodansylcadaverine with N,N-dimethylcasein produces a product that causes a shift in intensity and wavelength of fluorescence of the dansyl group now linked to the casein. The relative transglutaminase activity is shown by increase of fluorescence intensity over time. […]

Data set [2] concerns the target T1, mature evolved transglutaminase (SEQ ID NO: 5). Kind of data set: transglutaminase thermostability: activity after being held at 37-50 °C. Also on record: key: The symbol, —, represents not determined, neutral, or reduced performance. It counts as biochemical. The following applies: relative to wild-type pro-peptide; held at 37° C.-50° C. for 30 minutes, diluted 10-fold to 100-fold. The procedure: The terms “stability” and “thermostability” are used interchangeably to refer to increased residual activity of mature transglutaminase after incubation at elevated temperatures. In some embodiments, a pro-peptide variant increases the stability of a mature transglutaminase compared to the wild type pro-peptide. Measurement of stability is depicted in Example 4.
It is believed that these pro-peptide variants confer thermal stability to mature transglutaminase.

For data set [3], the target named is evolved variant of mature Streptomyces mobaraensis transglutaminase, including a two amino acid linker and hexa-his tag (Streptomyces mobaraensis) (UniProt P81453). The data set is described as follows: cell-based or functional assay.
The subject of another data set is E. coli ATCC 8739. Kind of data set: MIC determination of bacterial cultures (OD600). It counts as cell-based. The conditions noted are these: E. coli ATCC 8739, Mueller Hinton broth. The procedure: E. coli ATCC 8739 and C. albicans ATCC 10231 were acquired from the American Type Culture Collection (ATCC) (Manassas, VA) and maintained as −80° C. frozen glycerol stocks.
For Minimum Inhibitor Concentration (MIC) determination of bacterial cultures, E. coli ATCC 8739 was grown overnight (16-18 hours) in Mueller Hinton broth at 37° C. The following day, the cell density of the saturated cultures was calculated using OD600 and cultures were diluted to 10^4 to 10^6 CFU/mL in sterile Mueller Hinton broth to generate the inoculum, and 100 μL of the inoculum was combined with 100 μL of serially diluted transglutaminase variant at a range of 0.0001-0.05 weight percent. Growth curves were measured by OD600 on a BioTek® Synergy Plate Reader. All test conditions were performed in triplicate. MIC was determined to be 50 ppm (0.005% w/v) against E. coli for the enzyme described in SEQ ID NO: 5 using OD600.

The target in data set [4] is T2, thermostable mature transglutaminase variant (SEQ ID NO: 3) (Streptomyces mobaraensis, UniProt P81453).
T2 construct: made in house; host or cells: E. coli (lysate)
It counts as biochemical. The following applies: casein assay; Method A.
Text: (§2) Method A. A bicistronic expression vector encoding the wild-type pro-domain of transglutaminase (SEQ ID NO: 2) and a thermostable mature transglutaminase variant (SEQ ID NO: 3) as separate polypeptides was cloned as described in PCT/US20/49226 (WO2021/178001 A1). The vector was used as a template for synthesis of a random mutagenesis library targeting the pro-domain coding sequence to create pro-domain peptide variants.
Method A. Plasmid libraries containing mature transglutaminase and variant pro-domain peptides were plated on Luria-Bertani (LB) agar plates containing 50 μg/mL of kanamycin. After incubation for at least 16 hours at 37° C., colonies were picked and inoculated into 1 mL of LB broth with 50 μg/mL kanamycin in one well of a 96 deep well culture plate. The plate was covered with a breathable seal and incubated overnight at 37° C. with 400 rpm of shaking. 10 μL of the seed culture was used to inoculate 1 mL of media in a 96 deep well culture plate for expression. The expression plate was allowed to grow for 6-8 hours at 30° C. Expression was then induced by adding isopropyl beta-D-1-thiogalactopyranoside (IPTG) to a final concentration of 1 mM and the temperature was reduced to 20° C. while growth continued for an additional 15 hours. Cells were harvested by centrifugation at 4000 rcf for 30 minutes and pellets were frozen at −80° C.
as §1, with “time. The data were normalized for transglutaminase expression levels in E. coli lysate as described above. Pro-domain variants were identified based on their ability to alter the activity of the mature transglutaminase enzyme.” for “time.”
It is believed that these pro-peptide variants have reduced binding affinity with mature mTgase.

In data set [5] the target is T2, thermostable mature transglutaminase variant (SEQ ID NO: 3). Kind of data set: pH-responsiveness screen: casein/dansylcadaverine assay at pH 6.0 and pH 8.0 in the presence of pro-peptide variants (Method A). In kind it is biochemical. The following applies: casein assay.
Text: as §2
Method A. Plasmid libraries containing mature transglutaminase and variant pro-domain peptides were plated on Luria-Bertani (LB) agar plates containing 50 μg/mL of kanamycin. […]
as §1, with “casein.” for “casein. The relative transglutaminase activity is shown by increase of fluorescence intensity over time.”

T1 sequence (P81453 other isoform, or with tags, fused parts or gaps Q126S/Q150A/K167H/Q200L/K227R/K228R/N358M/G359A): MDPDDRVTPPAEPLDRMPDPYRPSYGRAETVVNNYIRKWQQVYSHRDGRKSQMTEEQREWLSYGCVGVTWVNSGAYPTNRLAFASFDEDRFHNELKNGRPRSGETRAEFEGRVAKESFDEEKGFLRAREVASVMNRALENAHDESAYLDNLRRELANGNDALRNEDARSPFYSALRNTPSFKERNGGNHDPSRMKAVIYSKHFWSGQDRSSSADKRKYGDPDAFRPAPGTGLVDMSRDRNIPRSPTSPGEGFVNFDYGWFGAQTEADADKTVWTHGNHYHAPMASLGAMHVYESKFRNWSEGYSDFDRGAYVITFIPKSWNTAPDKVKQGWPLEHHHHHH

“D2I, E2S, D21T: combination variant of pro-peptide SEQ ID NO: 2, Method B; E2S probably E7S (MINGAGSETKSYAETYRLTATDVANINALNESAPAASSAGPSFRAP)”: in data set [1], the Inhibition is given as greater than 2 fold. The Thermostability entry in data set [2] was “—”.

In turn, “pro-peptide variant D2I, E2S, D21T (Method B)” yielded an Inhibition in data set [3] greater than 2 fold.

With “D21T: substitution variant of pro-peptide SEQ ID NO: 2 (MDNGAGEETKSYAETYRLTATDVANINALNESAPAASSAGPSFRAP) [Variant D21T]”, the Inhibition entry in data set [1] is “—”.

B1: SEQ ID NO: 3: thermostable variant of Streptomyces mobaraensis transglutaminase (protein)
chain: MDPDDRVTPPAEPLDRMPDPYRPSYGRAETVVNNYIRKWQQVYSHRDGRKQQMTEEQREWLSYGCVGVTWVNSGQYPTNRLAFASFDEDRFKNELKNGRPRSGETRAEFEGRVAKESFDEEKGFQRAREVASVMNRALENAHDESAYLDNLKKELANGNDALRNEDARSPFYSALRNTPSFKERNGGNHDPSRMKAVIYSKHFWSGQDRSSSADKRKYGDPDAFRPAPGTGLVDMSRDRNIPRSPTSPGEGFVNFDYGWFGAQTEADADKTVWTHGNHYHAPNGSLGAMHVYESKFRNWSEGYSDFDRGAYVITFIPKSWNTAPDKVKQGWP
As to B1, in the data set with E. coli ATCC 8739, the MIC entry is on record as “outside the range of detection”.

B2: SEQ ID NO: 4 (protein)
chain: MDNGAGEETKSYAETYRLTADDVLNINAETYRLTADDVRNINALNESAPAASSAGPSFRAP
As to B2, in data set [4], the “transglutaminase activity relative to the wild-type pro-peptide” value is reported as “decrease in transglutaminase activity relative to the wild-type pro-peptide”. Further, in data set [5], the “activity at pH 6.0 relative to pH 8.0 compared to the wild-type pro-peptide” value is recorded as “increase in activity at pH 6.0 relative to pH 8.0 compared to the wild-type pro-peptide”.
